Residue numbers refer to the chain shown, from its start.
T1: biotinylated human CD203c (bio-huCD203c, Acro, Cat. nr. H52H4) (human, UniProt O14638 49-875, limits assumed, biotinylated (site not stated))
T1 construct: Captured on a Biotin CAPture chip for SPR
T1 sequence (looked up): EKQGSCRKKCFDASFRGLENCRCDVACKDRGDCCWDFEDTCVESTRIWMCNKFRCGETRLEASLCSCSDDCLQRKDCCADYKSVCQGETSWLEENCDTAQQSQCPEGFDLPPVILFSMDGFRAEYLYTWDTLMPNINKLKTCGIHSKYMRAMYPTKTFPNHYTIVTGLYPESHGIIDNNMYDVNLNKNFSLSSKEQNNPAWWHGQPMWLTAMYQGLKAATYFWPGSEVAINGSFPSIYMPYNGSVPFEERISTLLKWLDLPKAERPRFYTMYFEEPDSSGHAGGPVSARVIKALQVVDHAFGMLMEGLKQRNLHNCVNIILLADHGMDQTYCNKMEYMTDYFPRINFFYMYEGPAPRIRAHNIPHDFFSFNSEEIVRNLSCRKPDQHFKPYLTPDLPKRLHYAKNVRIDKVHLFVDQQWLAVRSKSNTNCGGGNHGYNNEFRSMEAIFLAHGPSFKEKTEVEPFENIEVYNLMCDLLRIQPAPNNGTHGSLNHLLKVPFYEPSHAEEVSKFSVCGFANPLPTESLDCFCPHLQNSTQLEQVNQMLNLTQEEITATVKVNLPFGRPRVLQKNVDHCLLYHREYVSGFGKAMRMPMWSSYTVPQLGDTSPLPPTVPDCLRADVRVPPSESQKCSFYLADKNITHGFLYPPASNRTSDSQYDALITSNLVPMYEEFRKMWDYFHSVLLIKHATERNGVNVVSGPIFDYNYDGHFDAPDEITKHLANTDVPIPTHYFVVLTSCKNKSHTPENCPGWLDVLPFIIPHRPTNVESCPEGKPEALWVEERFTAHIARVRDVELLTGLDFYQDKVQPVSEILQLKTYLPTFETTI

T2: human CD203c expressed on the surface of KU812 cells (human, UniProt O14638 1-875)
T2 construct: whole, on cells; also called cell-surface CD203c; cell surface CD203c on KU812 cells
T2 sequence (looked up): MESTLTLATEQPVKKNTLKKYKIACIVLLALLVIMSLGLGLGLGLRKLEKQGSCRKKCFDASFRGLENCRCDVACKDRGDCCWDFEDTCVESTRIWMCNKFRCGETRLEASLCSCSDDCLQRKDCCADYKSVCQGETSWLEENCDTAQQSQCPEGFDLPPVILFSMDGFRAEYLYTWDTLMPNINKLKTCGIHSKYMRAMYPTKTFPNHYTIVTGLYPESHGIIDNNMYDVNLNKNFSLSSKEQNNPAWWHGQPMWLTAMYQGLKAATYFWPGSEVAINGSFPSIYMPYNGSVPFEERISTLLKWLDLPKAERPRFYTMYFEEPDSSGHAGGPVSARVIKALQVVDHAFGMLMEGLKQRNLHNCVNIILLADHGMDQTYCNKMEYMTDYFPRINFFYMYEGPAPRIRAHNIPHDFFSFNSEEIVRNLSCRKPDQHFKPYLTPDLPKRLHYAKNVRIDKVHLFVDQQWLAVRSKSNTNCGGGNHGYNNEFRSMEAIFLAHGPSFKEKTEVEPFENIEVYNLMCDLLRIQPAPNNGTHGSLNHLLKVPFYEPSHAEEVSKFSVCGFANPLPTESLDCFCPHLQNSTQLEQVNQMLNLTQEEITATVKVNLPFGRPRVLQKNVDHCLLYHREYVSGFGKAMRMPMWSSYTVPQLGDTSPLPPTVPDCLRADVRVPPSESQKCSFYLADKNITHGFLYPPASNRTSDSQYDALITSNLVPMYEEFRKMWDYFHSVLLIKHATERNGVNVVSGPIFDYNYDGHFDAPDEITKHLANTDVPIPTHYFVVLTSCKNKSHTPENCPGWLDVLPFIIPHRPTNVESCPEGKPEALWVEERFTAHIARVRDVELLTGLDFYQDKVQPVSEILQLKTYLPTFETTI

T3: biotinylated cynomolgus CD203c (bio-cyCD203c, Icosagen) (cynomolgus monkey, UniProt A0A2K5TKP4 31-874, biotinylated (site not stated))
T3 construct: Captured on a Biotin CAPture chip for SPR; also called cyno CD203c
T3 sequence: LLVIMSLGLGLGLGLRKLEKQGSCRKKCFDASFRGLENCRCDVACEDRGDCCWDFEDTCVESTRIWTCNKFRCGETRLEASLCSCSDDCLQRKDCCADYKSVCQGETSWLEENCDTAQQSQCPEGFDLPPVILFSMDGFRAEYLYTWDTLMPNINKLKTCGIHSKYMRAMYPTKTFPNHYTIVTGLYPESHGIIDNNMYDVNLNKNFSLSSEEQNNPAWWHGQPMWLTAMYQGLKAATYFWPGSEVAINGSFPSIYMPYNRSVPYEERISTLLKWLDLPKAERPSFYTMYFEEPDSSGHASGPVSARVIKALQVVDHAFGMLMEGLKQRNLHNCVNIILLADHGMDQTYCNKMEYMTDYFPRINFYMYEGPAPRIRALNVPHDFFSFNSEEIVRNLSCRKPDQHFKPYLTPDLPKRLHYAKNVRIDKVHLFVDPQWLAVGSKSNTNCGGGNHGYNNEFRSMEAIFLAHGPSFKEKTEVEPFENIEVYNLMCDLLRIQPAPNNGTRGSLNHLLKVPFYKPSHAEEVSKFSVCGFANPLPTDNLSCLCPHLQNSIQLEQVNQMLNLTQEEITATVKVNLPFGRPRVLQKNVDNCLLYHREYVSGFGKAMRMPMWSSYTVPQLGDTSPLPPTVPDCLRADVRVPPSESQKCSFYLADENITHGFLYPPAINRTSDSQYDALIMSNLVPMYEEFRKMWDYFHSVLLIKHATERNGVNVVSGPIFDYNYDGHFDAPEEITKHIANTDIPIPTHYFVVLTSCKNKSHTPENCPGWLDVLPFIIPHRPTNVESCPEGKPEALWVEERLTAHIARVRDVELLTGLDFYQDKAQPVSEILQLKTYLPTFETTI

B1: MH1_C/F6.12_D bispecific (pI-engineered) (bispecific antibody, V domains shown)
VH 1: QVQLVQSGAEVKEPGASVKVSCKASGYTFTDYYMNWVRQAPGQGLEWMGRIYPGSGNTYYAQNFQGRVTMTRDTSTSTVYMELSSLRSEDTAVYYCARGVYYYDYWGQGTLVTVSS
VH 2: QVQLVQSGAEVKKPGESLKISCKGSGYRFASNWIGWVRQMPGKGLEWMGEIYPGDSNTRYSPSFQGQVTISADKSISTAYLQWSRLKASDTAMYYCARKDYYYGIMDVWGQGTTVTVSS
VL: DIQMTQSPSSLSASVGDRVTITCRASQGIRTNLAWFQQKPGKAPKSLIYAASSLQSGVPSRFSGSGSGTDFTLTISSLQPEDFATYYCQQYNSYPRTFGGGTKVEIK
notes: Knob-in-hole IgG1null bispecific with human Ckappa
B2: FJ2156_MH1_A x F6_12C huIgG1 KIH (bispecific antibody, V domains shown)
VH 1: B1 VH 1 with Q1E, E13K, N63K, G66D
VH 2: B1 VH 2 with S61R, R85S
VL: B1 VL
notes: also called MH1_A/F6.12_C
B3: FJ2156_MH1_C x F6_12B huIgG1 KIH (bispecific antibody, V domains shown)
VH 1: B1 VH 1
VH 2: B1 VH 2 with E46Q, R85S
VL: B1 VL
notes: also called MH1_C/F6.12_B
B4: FJ2156_MH1_A x F6_12B huIgG1 KIH (bispecific antibody, V domains shown)
VH 1: B1 VH 1 with Q1E, E13K, N63K, G66D
VH 2: B1 VH 2 with E46Q, R85S
VL: B1 VL
notes: also called MH1_A/F6.12_B
B5: 1.27/MH1 common light chain bispecific (anti-CD203c 1.27 x anti-c-Kit MH1) (bispecific antibody, V domains shown)
VH 1: B1 VH 1 with E13K, N63K
VH 2: B1 VH 2 with Q1E, A30T, N32Y, E50I, N57D, R85S, G104Y, I105A
VL: B1 VL
notes: as for B1
B6: MH1/F6.12 bispecific (parental, before pI engineering) (bispecific antibody, V domains shown)
VH 1: B1 VH 1 with E13K, N63K
VH 2: B1 VH 2 with Q1E, R85S
VL: B1 VL
notes: Knob-in-hole IgG1null bispecific with human Ckappa; also called parental bispecific MH1/F6.12

The binders below were run against T1, biotinylated human CD203c … (assay: SPR, single-cycle protocol, Bio-huCD203c; table gives Rmax, Chi2 and KD only).

Kd	Binder
79.2 nM	B1
84.8 nM	B2
108 nM	B3
98.5 nM	B4

What follows are binders tested against T2, human CD203c expressed on the surface … (assay: flow cytometry on KU812 cells, which carry both c-Kit and CD203c; signal not separated by target).
Protocol: (§1) All treatments were performed on cells seeded in T75 flasks at a seeding density of 0.3e6/ml. Cells were cultured in the presence of 80 ng/ml of SCF and treated with 20 ng/ml of IL3 24 hours prior to antibody staining. Following SCF/IL3 treatment, cells were harvested and stained with live dead stain (Zombie UV Biolegend 423108). Cells were then stained with a titration of anti-CD203c antibodies/bispecifics or respective isotype controls in a 5-fold dilution series starting at 50 μg/mL and detected with Anti human-Fc AF647 antibody (JIR 109-605-098). Samples were subsequently run on a Yeti analyzer, gating on 10K live cells. Subsequent analysis was performed using FlowJo software and data represented as MFI (median fluorescent intensity).
(§2) The purified proteins were assessed for co-operative binding to both targets, CD203c and c-Kit, on KU812 cells. […] This enhanced binding translates to potent inhibition of c-Kit receptor phosphorylation by the F6/MH1 bispecific molecule when compared to monovalent anti-c-kit, which is shown in FIG. 8.

binding result	Binder
binds	B5

What follows are binders tested against T4, c-Kit on KU812 cells (UniProt P10721 26-976, limits assumed) in the same assay as above.
T4 construct: whole, on cells; also called c-Kit receptor; CD117
T4 sequence (P10721 26-976 limits assumed): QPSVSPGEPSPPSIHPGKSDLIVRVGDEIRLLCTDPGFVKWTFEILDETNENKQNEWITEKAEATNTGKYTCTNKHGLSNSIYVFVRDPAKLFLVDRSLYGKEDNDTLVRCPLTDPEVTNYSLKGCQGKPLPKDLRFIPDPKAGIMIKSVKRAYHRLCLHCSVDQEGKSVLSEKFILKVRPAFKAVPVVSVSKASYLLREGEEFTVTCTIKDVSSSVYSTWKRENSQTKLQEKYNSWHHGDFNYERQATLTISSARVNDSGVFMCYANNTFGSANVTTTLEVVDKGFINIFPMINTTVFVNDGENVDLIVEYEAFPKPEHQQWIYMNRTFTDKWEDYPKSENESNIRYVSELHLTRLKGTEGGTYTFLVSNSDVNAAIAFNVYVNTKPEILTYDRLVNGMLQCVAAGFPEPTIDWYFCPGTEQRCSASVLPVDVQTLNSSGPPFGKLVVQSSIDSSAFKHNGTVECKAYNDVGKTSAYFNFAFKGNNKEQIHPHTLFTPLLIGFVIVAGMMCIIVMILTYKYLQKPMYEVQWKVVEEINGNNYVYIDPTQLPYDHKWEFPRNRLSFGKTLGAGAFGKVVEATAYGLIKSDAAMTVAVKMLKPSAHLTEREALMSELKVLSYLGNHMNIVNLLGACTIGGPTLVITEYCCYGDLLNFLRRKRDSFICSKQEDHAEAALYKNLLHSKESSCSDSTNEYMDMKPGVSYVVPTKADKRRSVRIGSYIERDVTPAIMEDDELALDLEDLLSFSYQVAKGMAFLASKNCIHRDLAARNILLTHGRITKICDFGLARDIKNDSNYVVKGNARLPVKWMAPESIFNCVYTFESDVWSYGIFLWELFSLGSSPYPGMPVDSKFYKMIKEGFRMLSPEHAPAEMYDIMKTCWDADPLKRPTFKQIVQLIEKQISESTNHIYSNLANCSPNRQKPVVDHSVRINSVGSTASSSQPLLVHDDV
Protocol: as §1, §2

binding result	Binder
binds	B5

Each binder was assayed against cyno c-Kit (SPR) (cyno, UniProt F6V858 26-520 (rhesus entry)) (assay: SPR, single-cycle kinetics, Cynomolgus C-kit).
cyno c-Kit (SPR), sequence (chain, as listed by the source): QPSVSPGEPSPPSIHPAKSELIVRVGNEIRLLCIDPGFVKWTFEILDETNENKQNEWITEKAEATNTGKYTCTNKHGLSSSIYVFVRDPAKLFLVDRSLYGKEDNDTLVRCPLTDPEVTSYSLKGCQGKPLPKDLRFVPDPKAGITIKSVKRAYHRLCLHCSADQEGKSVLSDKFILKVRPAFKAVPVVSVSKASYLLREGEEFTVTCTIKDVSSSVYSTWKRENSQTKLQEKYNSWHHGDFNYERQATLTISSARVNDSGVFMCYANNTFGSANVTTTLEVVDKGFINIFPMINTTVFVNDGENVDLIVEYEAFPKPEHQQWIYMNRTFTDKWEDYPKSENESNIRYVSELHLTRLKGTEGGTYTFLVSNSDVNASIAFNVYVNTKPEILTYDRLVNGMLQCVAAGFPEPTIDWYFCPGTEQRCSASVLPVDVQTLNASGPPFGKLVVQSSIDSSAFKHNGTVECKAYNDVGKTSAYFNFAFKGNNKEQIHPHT

Kd	koff	kon	Binder
52.7 nM	0.0159 s⁻¹	301000 M⁻¹ s⁻¹	B6
52.3 nM	0.0152 s⁻¹	291000 M⁻¹ s⁻¹	B1
91.3 nM	0.0272 s⁻¹	297000 M⁻¹ s⁻¹	B2
52.4 nM	0.0155 s⁻¹	295000 M⁻¹ s⁻¹	B3
95.5 nM	0.0277 s⁻¹	291000 M⁻¹ s⁻¹	B4

These binders were tested against T2, human CD203c expressed on the surface … (assay: flow cytometry on KU812 cells, which carry both c-Kit and CD203c (median fluorescence intensity); signal not separated by target; no unit follows the number, the axis is in nM and the dotted line stands at about 0.2).
Protocol: as §1

EC50	Binder
0.214 nM	B1

The binders below were run against T4, c-Kit on KU812 cells in the same assay as above.
Protocol: as §1

EC50	Binder
0.214 nM	B1

These binders were tested against T3, biotinylated cynomolgus CD203c … (assay: SPR, single-cycle protocol, Bio-cyCD203c; table gives Rmax, Chi2 and KD only).

Kd	Binder
63.1 nM	B1
51.8 nM	B2
75.8 nM	B3
68.2 nM	B4

The binders below were run against T2, human CD203c expressed on the surface … (assay: flow cytometry on KU812 cells, which carry both c-Kit and CD203c (median fluorescence intensity); signal not separated by target).
Protocol: as §1

EC50	Binder
0.238 nM	B3

Each binder was assayed against T4, c-Kit on KU812 cells in the same assay as above.
Protocol: as §1

EC50	Binder
0.548 nM	B6
0.238 nM	B3

Each binder was assayed against human c-Kit (SPR) (human, UniProt P10721 26-520, limits assumed) (assay: SPR, single-cycle kinetics, Human C-kit).
human c-Kit (SPR), sequence (P10721 26-520 limits assumed): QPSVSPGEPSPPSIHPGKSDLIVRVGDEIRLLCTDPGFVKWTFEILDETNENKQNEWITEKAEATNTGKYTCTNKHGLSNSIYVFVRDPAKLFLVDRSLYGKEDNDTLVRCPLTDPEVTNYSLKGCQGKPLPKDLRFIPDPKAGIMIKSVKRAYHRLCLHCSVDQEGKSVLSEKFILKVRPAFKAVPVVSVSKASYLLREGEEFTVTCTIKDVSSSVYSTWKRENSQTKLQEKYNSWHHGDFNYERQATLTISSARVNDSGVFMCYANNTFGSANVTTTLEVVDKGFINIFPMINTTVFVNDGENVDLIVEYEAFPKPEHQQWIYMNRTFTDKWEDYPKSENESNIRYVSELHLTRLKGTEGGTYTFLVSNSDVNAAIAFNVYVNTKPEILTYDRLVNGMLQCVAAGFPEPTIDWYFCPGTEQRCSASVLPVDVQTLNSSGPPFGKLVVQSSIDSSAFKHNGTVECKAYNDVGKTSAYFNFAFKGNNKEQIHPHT

Kd	koff	kon	Binder
45.1 nM	0.00978 s⁻¹	217000 M⁻¹ s⁻¹	B6
43 nM	0.00919 s⁻¹	214000 M⁻¹ s⁻¹	B1
86.1 nM	0.0171 s⁻¹	199000 M⁻¹ s⁻¹	B2
44.5 nM	0.00949 s⁻¹	213000 M⁻¹ s⁻¹	B3
82.7 nM	0.0166 s⁻¹	201000 M⁻¹ s⁻¹	B4
